Laboratory results: PMC7448383

Experiments:
Assay in all cases: EMSA
G3BP1 WT = G3BP1 WT (human, UniProt Q13283 1-466)
G3BP1 S149A = G3BP1 S149A (human, UniProt Q13283 1-466, S149A)
G3BP1 dIDR3 (dRGG) = G3BP1 dIDR3 (dRGG) (human, UniProt Q13283 1-410, del411-466)
G3BP1 dRBD = G3BP1 dRBD (human, UniProt Q13283 1-334, del335-466)
Chain of G3BP1 dRBD (Q13283 1-334, stated change not applied): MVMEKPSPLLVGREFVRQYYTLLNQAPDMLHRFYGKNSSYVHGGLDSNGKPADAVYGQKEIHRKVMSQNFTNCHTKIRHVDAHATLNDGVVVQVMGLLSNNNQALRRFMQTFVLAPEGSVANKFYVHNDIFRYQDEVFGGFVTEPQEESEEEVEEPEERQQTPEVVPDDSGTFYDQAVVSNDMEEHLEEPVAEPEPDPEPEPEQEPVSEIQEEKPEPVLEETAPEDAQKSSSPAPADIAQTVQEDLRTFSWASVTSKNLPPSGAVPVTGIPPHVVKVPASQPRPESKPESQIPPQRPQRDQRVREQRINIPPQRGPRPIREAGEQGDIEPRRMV

Chain of G3BP1 dIDR3 (dRGG) (Q13283 1-410, stated change not applied): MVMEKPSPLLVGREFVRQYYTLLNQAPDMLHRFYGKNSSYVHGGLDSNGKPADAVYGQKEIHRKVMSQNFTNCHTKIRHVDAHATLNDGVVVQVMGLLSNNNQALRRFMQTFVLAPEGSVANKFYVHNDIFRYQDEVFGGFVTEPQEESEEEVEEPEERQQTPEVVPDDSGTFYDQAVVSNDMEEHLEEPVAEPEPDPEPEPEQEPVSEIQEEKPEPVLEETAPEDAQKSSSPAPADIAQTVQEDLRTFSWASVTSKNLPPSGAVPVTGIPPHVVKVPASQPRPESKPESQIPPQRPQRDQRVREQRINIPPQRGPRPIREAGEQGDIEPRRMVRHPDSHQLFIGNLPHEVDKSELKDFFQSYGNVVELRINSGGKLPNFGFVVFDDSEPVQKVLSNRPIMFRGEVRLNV
Chain of G3BP1 S149A (Q13283 whole entry S149A): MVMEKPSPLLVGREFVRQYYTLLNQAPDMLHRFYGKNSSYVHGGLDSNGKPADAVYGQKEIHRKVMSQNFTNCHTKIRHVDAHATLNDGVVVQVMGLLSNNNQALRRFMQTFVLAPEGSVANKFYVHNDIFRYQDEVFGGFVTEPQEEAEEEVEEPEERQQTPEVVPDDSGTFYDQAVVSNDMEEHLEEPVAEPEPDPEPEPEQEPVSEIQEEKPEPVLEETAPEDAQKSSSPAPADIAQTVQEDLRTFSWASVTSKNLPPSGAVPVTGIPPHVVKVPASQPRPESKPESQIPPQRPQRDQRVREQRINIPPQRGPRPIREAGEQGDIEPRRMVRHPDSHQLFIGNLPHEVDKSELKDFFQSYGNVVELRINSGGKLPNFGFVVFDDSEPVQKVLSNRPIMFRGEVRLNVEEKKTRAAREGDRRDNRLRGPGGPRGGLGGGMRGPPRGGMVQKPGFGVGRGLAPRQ
Chain of G3BP1 WT (Q13283 whole entry): as the sequence (Q13283 whole entry S149A) above, with A149S counted along it

AGAUUCCACCACAAAGACCC (ssRNA) [20-base RNA]
binding result (G3BP1 WT): binds
binding result (G3BP1 S149A): binds

B1: 100-base RNA (ssRNA)
RNA: AGCCUGAAUCUCAGAUUCCACCACAAAGACCUCAGCGGGAUCAAAGAGUGCGAGAACAACGAAUAAAUAUUCCUCCCCAAAGGGGACCCAGACCAAUCCG
binding result (G3BP1 dIDR3 (dRGG)): no binding
binding result (G3BP1 dRBD): no binding
